According to US20220025373, “COMPOSITIONS AND METHODS RELATED TO NUCLEIC ACID ANTICOAGULANTS” (North Carolina State University, published 2022):

Key:
Thrombin [1] = molecular target: T1, Thrombin (UniProt P00734;P00734 P00734:328-363,P00734:364-622); experiment: EMSA; 5 pmol RNA + 25 pmol protein, 37 C 1 h
[2] = molecular target: T2, Bovine serum albumin (BSA) (Bos taurus, UniProt P02769 P02769:25-607); experiment: EMSA; 37 C 1 h
Experimental: (§1) Specificity tests of the Th-RNA origami with two proteins (Factor IXa and Xa) involved in the coagulation cascade and one common protein (bovine serum albumin, BSA) were performed. To test specificity, the RNA origami was incubated with protein at 37° C. for one hour and characterized by native acrylamide gel electrophoresis. The non-aptamer presenting on RNA origami (2HF-RNA-NNNN) was not able to bind to all four proteins (FIG. 25). All seven designs of RNA origami with RNA thrombin aptamers (2HF-RNA-12NN, 1N2N, 2NN1, Fss12, 2HF-2211, 3HF-2NN1, and 4HF-2NN1) show the specificity binding with thrombin as results shown in FIGS. 26-28 and FIGS. 42-45).
(§2) For specificity tests, heat-annealed RNA origami or DNA weave tile (5 pmol) was dissolved in 1× annealing buffer and incubated with protein (25 pmol) at 37° C. for 1 hr. The samples were tested by 6% native acrylamide gel electrophoresis in 1×TBE as running buffer at 150 V for 3 hr. The gels were stained with Ethidium bromide for nucleic acid staining and visualized under a UV lamp. Then, the gels were further stained with Coomassie blue for protein staining and imaged with the ProteinSimple instrument.

Factor IXa [3] = molecular target: T3, Factor IXa (UniProt P00740;P00740 P00740:47-191,P00740:227-461); experiment: EMSA; 37 C 1 h
T3 sequence (P00740 47-191, chain 1 of 2): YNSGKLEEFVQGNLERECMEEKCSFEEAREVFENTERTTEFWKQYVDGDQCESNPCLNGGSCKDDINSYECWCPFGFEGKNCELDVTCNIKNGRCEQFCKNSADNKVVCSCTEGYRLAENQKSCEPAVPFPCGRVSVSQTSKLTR
T3 sequence (P00740 227-461, chain 2 of 2): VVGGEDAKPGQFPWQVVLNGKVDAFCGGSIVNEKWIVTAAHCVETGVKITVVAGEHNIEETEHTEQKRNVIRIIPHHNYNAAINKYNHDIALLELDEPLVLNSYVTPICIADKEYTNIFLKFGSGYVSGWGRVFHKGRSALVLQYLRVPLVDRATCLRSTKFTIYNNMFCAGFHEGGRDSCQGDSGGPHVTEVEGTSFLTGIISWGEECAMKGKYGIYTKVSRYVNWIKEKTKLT
Experimental: as §1, §2

Factor Xa [4] = molecular target: T4, Factor Xa (UniProt P00742;P00742 P00742:41-179,P00742:235-488); experiment: EMSA; 37 C 1 h
T4 sequence (P00742 41-179, chain 1 of 2): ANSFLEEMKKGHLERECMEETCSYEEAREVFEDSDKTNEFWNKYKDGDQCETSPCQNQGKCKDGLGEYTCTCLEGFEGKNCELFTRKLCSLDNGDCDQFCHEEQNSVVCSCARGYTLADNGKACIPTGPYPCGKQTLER
T4 sequence (P00742 235-488, chain 2 of 2): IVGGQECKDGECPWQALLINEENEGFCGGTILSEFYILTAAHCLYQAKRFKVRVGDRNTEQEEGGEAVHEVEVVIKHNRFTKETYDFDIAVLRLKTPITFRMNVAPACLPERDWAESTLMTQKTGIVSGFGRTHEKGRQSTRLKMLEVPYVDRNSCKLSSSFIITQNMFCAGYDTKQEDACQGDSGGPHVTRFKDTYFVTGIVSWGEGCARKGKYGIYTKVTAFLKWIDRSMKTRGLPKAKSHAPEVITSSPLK
Experimental: as §1, §2

Thrombin [5] = molecular target: T1, Thrombin; experiment: EMSA; 5 pmol RNA + 25 pmol protein, 1x annealing buffer, 37 C 1 h, 6% native PAGE
[6] = molecular target: T2, Bovine serum albumin (BSA); experiment: EMSA; 5 pmol RNA + 25 pmol protein, 37 C 1 h; details: 2-helix RNA origami with tetraloops and 180 degree kissing loop, no aptamer
Experimental: as §1, §2

Factor IXa [7] = molecular target: T3, Factor IXa; experiment: EMSA; 5 pmol RNA + 25 pmol protein, 37 C 1 h; details: 2-helix RNA origami with tetraloops and 180 degree kissing loop, no aptamer
Experimental: as §1, §2

Factor Xa [8] = molecular target: T4, Factor Xa; experiment: EMSA; 5 pmol RNA + 25 pmol protein, 37 C 1 h; details: 2-helix RNA origami with tetraloops and 180 degree kissing loop, no aptamer
Experimental: as §1, §2

[9] = two aptamers (exosite 2 and exosite 1) joined by 31 nt single-stranded linker
[10] = 2-helix RNA origami with exosite 1 and exosite 2 aptamers
[11] = 2-helix RNA origami with exosite 1 aptamer (RNAR9D-14T) and exosite 2 aptamer (Toggle-25t)

T2 sequence (P02769 25-607, one chain of several): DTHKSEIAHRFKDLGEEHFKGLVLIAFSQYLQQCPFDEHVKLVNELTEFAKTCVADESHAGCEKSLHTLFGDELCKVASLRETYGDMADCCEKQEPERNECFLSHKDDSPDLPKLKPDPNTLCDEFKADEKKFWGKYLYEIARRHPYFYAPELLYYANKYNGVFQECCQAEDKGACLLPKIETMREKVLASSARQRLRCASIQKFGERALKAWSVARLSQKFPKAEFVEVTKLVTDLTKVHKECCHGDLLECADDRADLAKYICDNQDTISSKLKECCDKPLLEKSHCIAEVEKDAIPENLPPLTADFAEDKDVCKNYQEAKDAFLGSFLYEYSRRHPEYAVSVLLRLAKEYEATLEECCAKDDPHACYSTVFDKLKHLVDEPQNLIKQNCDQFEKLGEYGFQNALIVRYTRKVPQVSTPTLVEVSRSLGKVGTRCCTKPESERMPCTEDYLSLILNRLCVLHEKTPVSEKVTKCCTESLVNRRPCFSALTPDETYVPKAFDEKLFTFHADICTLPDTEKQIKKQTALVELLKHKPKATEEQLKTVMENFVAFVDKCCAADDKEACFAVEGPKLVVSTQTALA

Row | Binder | binding result (Thrombin [1]) | binding result [2, 10] | binding result (Factor IXa [3]; [10]) | binding result (Factor Xa [4]; [10]) | further results
1 | Fss12 (ssRNA, 2'-F at all C and U) RNA: GGGAACAAAGCUGAAGUACUUACCCACCUUACCACUCCACCUCACUCACCUAUUACGGCGGUCGAUCACACAGUUCAAACGUAAUAAGCCAAUGUACGAGGCAGACGACUCGCC | binds |  |  |  | binding result [2, 9]: no binding; binding result (Factor IXa [3]; [9]): no binding; binding result (Factor Xa [4]; [9]): no binding
2 | 2HF-RNA-NNNN (ssRNA, 2'-F at all C and U) RNA: GGGAGAUCGAGCGACUUCCGACUUCGGUCGGGAGUCGGGCUAGUCAUCUUCGGAUGAUUAGCCGCUGGUGAAGCCUCCACGCCAGCCUCGGUCUCCCGCAGUAGGAUCGGACUGAAGGAGGCACGGUCCCAGCCGAAGUGUCUUGCUUCGGCAAGGCACUUUGGCUGCUAGACUGGCUGGCUUCGGCCAGCUAGUUUAGGAUUCUAUUGC |  |  |  |  | binding result (Thrombin [5]): no binding; binding result [6]: no binding; binding result (Factor IXa [7]): no binding; binding result (Factor Xa [8]): no binding
3 | 2HF-RNA-1N2N (ssRNA, 2'-F at all C and U) RNA: GGGAGAUCGAGCGACUUCCGACGGGAACAAAGCUGAAGUACUUACCCGUCGGGAGUCGGGCUAGUCAUCUUCGGAUGAUUAGCCGCUGGUGAAGCCUCCACGCCAGCCUCGGUCUCCCGCAGUAGGAUCGGACUGAAGGAGGCACGGUCCCAGCCGAAGUGUCUGGCGGUCGAUCACACAGUUCAAACGUAAUAAGCCAAUGUACGAGGCAGACGACUCGCCAGGCACUUUGGCUGCUAGACUGGCUGGCUUCGGCCAGCUAGUUUAGGAUUCUAUUGC | binds | no binding | no binding | no binding | 
4 | 2HF-RNA-12NN (ssRNA, 2'-F at all C and U) RNA: GGGAGAUCGAGCGACUUCCGACUUCGGUCGGGAGUCGGGCUAGUCAUCGGGAACAAAGCUGAAGUACUUACCCGAUGAUUAGCCGCUGGUGAAGCCUCCACGCCAGCCUCGGUCUCCCGCAGUAGGAUCGGACUGAAGGAGGCACGGUCCCAGCCGAAGUGUCUGGCGGUCGAUCACACAGUUCAAACGUAAUAAGCCAAUGUACGAGGCAGACGACUCGCCAGGCACUUUGGCUGCUAGACUGGCUGGCUUCGGCCAGCUAGUUUAGGAUUCUAUUGC | binds |  |  |  | binding result [2, 11]: no binding; binding result (Factor IXa [3]; [11]): no binding; binding result (Factor Xa [4]; [11]): no binding
5 | 2HF-RNA-2NN1 (ssRNA, 2'-F at all C and U) RNA: GGGAGAUCGAGCGACUUCCGACUUCGGUCGGGAGUCGGGCUAGUCAUCUUCGGAUGAUUAGCCGCUGGUGAAGCCUCCACGCCAGCCUCGGUCUCCCGCAGUAGGAUCGGACUGAAGGAGGCACGGUCCCAGCCGAAGUGUCUUGCGGGAACAAAGCUGAAGUACUUACCCGCAAGGCACUUUGGCUGCUAGACUGGCUGGCGGCGGUCGAUCACACAGUUCAAACGUAAUAAGCCAAUGUACGAGGCAGACGACUCGCCGCCAGCUAGUUUAGGAUUCUAUUGC | binds | no binding | no binding | no binding | 
